{"source": "patent US20210347873A1", "about": "(SHANGHAI PHARMAEXPLORER, published 2021)", "binders": {"B1": {"name": "L1D12 (antibody, V domains shown)", "VH": "QVQLVQSGGGLVQPGGSLRLSCAASGFTVSSNYMSWVRQAPGKGLEWVSVIYSGGSTYYADSVKGRFTISRDNSKNTLYLQMNSLRAEDTAVYYCARGFHDILTGYGMDVWGQGTTVTVSS", "VL": "SSELTQDPAVSVALGQTVRITCQGDSLRNYYAGWYQQKPGQAPVLVIYGKNNRPSGIPDRFSGSSSGNTASLTITGTQAEDEADYYCSSRDNSGTHLVEFGGGTKLTVL", "notes": "From a human naive scFv phage library; also called human BLyS antibody L1D12; LID12"}, "B2": {"name": "2-1G11 (antibody, V domains shown)", "VH": "EVQLVESRGGVVQPGRSLRLSCAASGFTFSSYGMHWVRQAPGKGLEWVAVISYDGSNKYYADSVKGRFTISRDNSKNTLYLQMNSLRAEDAAVYYCARDRVDILTGYSIYGMDVWGQGTTVTVSS", "VL": "EIVMTQSPATLSLSPGERATLSCRASQSVSSYLAWYQQKPGQAPRLLIYDASKRATGIPARFSGSGSGTDFTLTISSLEPEDFAVYYCQQRSNWPLTFGGGTKVEIK", "notes": "From a human naive scFv phage library; also called human BLyS antibody 2-1G11"}, "B3": {"name": "L9G7 (antibody, V domains shown)", "VH": "QIQLVQSGAEVKKPGASVKVSCKASGYTFTSYGISWVRQAPGQGLEWMGWISAYNGNTNYAQKLQGRVTMTTDTSTSTAYMELRSLRSDDTAVYYCARTYYDILTGYYYYGMDVWGQGTTVTVSS", "VL": "B2 VL with M4L, A9G, A25T, S30D, S31T, K53N", "notes": "From a human naive scFv phage library; also called human BLyS antibody L9G7"}, "B4": {"name": "L1D12 (antibody, human IgG1, V domains shown)", "VH": "B1 VH", "VL": "B1 VL", "notes": "also called LID12"}, "B5": {"name": "111D10D6G3 (antibody, V domains shown)", "VH": "QVQLQQPGAELVKPGASVKMSCKASGYTFTRHWITWVKQRPGQGLEWIGDIFPGSGSINYNEKFKSEATLTVEKSSSTAYMQLSSLTSEDSAVYYCARGDVDVWGTGTTVTVSS", "VL": "DIQMTQSPSSLSASLGERVSLTCRASQEIRGYLSWLQQKPNGTIKRLIYAASTLDSGVPKRFSATRSGSDFSLTISSLESEDFADYYCLQYASYPFTFGSGTKLEIK", "notes": "Mouse hybridoma antibody purified on Protein G"}, "B6": {"name": "L9G7 (antibody, human IgG1, V domains shown)", "VH": "B3 VH", "VL": "B2 VL with M4L, A9G, A25T, S30D, S31T, K53N"}, "B7": {"name": "97A3C2H4 (antibody, V domains shown)", "VH": "EVKLVESGGGLVQPGGSLKLSCAASGFTFSTYTMSWVRQTPEKRLEWVAYISYGGGSTSYPDTVKGRFTISRDNAKNTLYLQMSSLKSEDTAIYYCTRHVTVVENSMDYWGQGTSVTVSS", "VL": "DILLTQSPDILSVSPGERVSFSCRASQSIGTSIHWYQQRTNGSPRLLIKYVSESFSGTPSRFSGSGSGTAFTLTINSVESEDIADYYCQQTHSWPWTFGGGTKLEIK", "notes": "as for B5"}, "B8": {"name": "111D10D6G3 (antibody, V domains shown)", "VH": "B5 VH", "VL": "B5 VL", "notes": "Mouse hybridoma monoclonal antibody purified on Protein G"}, "B9": {"name": "8E7D9C7F5 (antibody, V domains shown)", "VH": "QVQLQQSGVELARPGASVKLSCKASGYTFTSYGISWVKQRTGQALEWIGEIYPRSGNTYYNEKFKGKATLTADKSSSTAYMELRSLTSEDSAVYFCARSGPITTLVATDYGMDYWGQGTSVTVSS", "VL": "DIVLTQSPASLAVSLGQRATISCRASKSVSTSSYSYMHWYQQKPGQPPKLLIKFASNLESGVPARFSGSGSGTDFTLNIHPVEEEDAATYYCQHSREFPYTFGGGTKLEIK", "notes": "as for B8"}, "B10": {"name": "97A3C2H4 (antibody, V domains shown)", "VH": "B7 VH", "VL": "B7 VL", "notes": "as for B8"}}, "note": "Numbering of substitutions follows the chain as printed.", "data": [{"target": "T1, biotinylated hBLyS-ECD (human, UniProt Q9Y275 134-285, biotinylated with Biotin-X-X-NHS (molar ratio 7:1); sites not stated)", "T1 construct": "also called biotinylated immunogen; BLyS protein", "test": "competitive ELISA on biotinylated hBLyS-ECD; competitor L1D12", "experimental": "(§1) The purified human BLyS antibody and hybridoma antibody were subjected to competitive enzyme-linked immunosorbent assay and the epitopes binding by different antibodies were analyzed.\n(§2) Purified BLyS antibody was first diluted to a final concentration of 1.0 μg/mL with PBS, then aliquoted into a 96-well ELISA plate at 50 μL per well, and the plate was subsequently sealed with plastic film and incubated at 4° C. overnight. On the next day the plate was rinsed four times with the plate washing buffer [PBS buffer containing 0.05% (v/v) Tween20] and mixed with blocking solution [PBS buffer containing 0.05% (v/v) Tween20 and 1% (w/w) BSA], and then blocked at 37° C. for 1 hour. The blocking solution was removed, and the competitive antibody and IgG control were diluted to a final concentration of 40 μg/mL with PBS and then aliquoted into the 96-well ELISA plate at 50 μL per well. The biotinylated hBLyS-ECD was then diluted with PBS to a final concentration of 2 ng/mL and pipetted into the 96-well ELISA plate at 50 μL per well. The final concentration of competitive antibody and hBLyS-ECD was 20 μg/mL and 1 ng/mL, respectively. After incubation at 37° C. for 1 hour, the plate was rinsed four times with the plate washing buffer [PBS buffer containing 0.05% (v/v) Tween20]. 100 μL per well of HRP-labeled (horseradish peroxidase) streptavidin (purchased from Sigma) was added into the plate and the plate was incubated at 37° C. for 1 hour. The plate was then washed four times with the plate washing buffer [PBS buffer containing 0.05% (v/v) Tween20]. 100 μL of TMB substrate was aliquoted into each well and after incubation at room temperature for 5 minutes, 100 μL of stop solution (1.0 N HCl) was aliquoted into each well. A₄₅₀ₙₘ values were read by an ELISA plate reader (SpectraMax M5e, purchased from Molecular Device) and the results were shown in Tables 18A-18B. […] The data shown in the table is the inhibitory rate (%) of the binding level of the original antibody to hBLyS-ECD after addition of the competitive antibody.", "units": {"inhibitory rate (%)": "%"}, "values": [{"binder": "B1", "inhibitory rate (%)": 94}, {"binder": "B2", "inhibitory rate (%)": 91}, {"binder": "B3", "inhibitory rate (%)": 97}]}, {"target": "T2, biotinylated hBLyS-ECD (human, UniProt Q9Y275 134-285, biotinylated with Biotin-X-X-NHS (molar ratio 7:1), sites not stated)", "T2 construct": "The hBLyS-ECD of Embodiment 1 after biotinylation (Embodiment 2); also called biotinylated immunogen; BLyS protein; not shown: His tag of the pCPC vector", "T2 sequence (Q9Y275 134-285)": "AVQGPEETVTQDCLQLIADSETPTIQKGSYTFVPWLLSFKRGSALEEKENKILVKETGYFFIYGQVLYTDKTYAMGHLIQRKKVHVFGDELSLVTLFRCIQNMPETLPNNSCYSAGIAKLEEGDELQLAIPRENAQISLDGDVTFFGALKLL", "test": "receptor-ligand blocking ELISA: BAFF R coated, biotinylated hBLyS-ECD added with titrated antibody, HRP-avidin; blocked partner: BAFF R", "experimental": "(§3) BAFF R (purchased from R & D Systems) was aliquoted into 96-well ELISA plate at 50 ng per well, and the plate was sealed with plastic film and incubated overnight at 4° C. On the next day the plate was washed four times with the plate washing buffer [PBS buffer containing 0.05% (v/v) Tween20] and added with blocking solution [PBS buffer containing 0.05% (v/v) Tween20 and 1% (w/w) BSA], then blocked for 1 hour at room temperature. The blocking solution was removed and 50 μL per well of the lead antibodies prepared in Embodiment 1 and 2 were added followed by the addition of 50 μL per well of the biotinylated hBLyS-ECD prepared in Embodiment 2. After incubation for 1 hour at 37° C., the plate was washed four times with the plate washing buffer [PBS buffer containing 0.05% (v/v) Tween20]. 100 μL per well of HRP-labeled (horseradish peroxidase) avidin (purchased from Sigma) was added and incubated at 37° C. for 1 hour. The plate was then washed four times with the plate washing buffer [PBS buffer containing 0.05% (v/v) Tween20]. 100 μL of TMB substrate was aliquoted into each well and after incubation for 5 minutes at room temperature, then 100 μL of stop solution (1.0 N HCl) was aliquoted into each well. A₄₅₀ₙₘ values were read with an ELISA plate reader (SpectraMax 384plus, Molecular Device) and the results were shown in FIGS. 9A-9B and Table 15. It was shown in Table 15 that the binding of BLyS protein to its receptor BAFF R could be blocked by the BLyS antibody.", "units": {"IC50 (read off the curve)": "nM"}, "values": [{"binder": "B4", "IC50 (read off the curve)": "~1"}, {"binder": "B5", "IC50 (read off the curve)": "~0.1"}, {"binder": "B6", "IC50 (read off the curve)": "~0.7"}, {"binder": "B7", "IC50 (read off the curve)": "~0.3"}]}, {"target": "T1, biotinylated hBLyS-ECD", "test": "competitive ELISA on biotinylated hBLyS-ECD; competitor L9G7", "experimental": "as §1, §2", "units": {"inhibitory rate (%)": "%"}, "values": [{"binder": "B1", "inhibitory rate (%)": 90}, {"binder": "B2", "inhibitory rate (%)": 79}, {"binder": "B3", "inhibitory rate (%)": 95}]}, {"target": "T1, biotinylated hBLyS-ECD", "test": "competitive ELISA on biotinylated hBLyS-ECD; competitor 2-1G11", "experimental": "as §1, §2", "units": {"inhibitory rate (%)": "%"}, "values": [{"binder": "B1", "inhibitory rate (%)": 94}, {"binder": "B2", "inhibitory rate (%)": 82}, {"binder": "B3", "inhibitory rate (%)": 96}]}, {"target": "T1, biotinylated hBLyS-ECD", "test": "blocking ELISA: biotinylated hBLyS-ECD on coated BAFF R, antibody 0.00128 nM", "experimental": "BLyS antibody blocking the binding of the BLyS protein to its receptor BAFF R was detected by the receptor-ligand binding assay of BLyS protein.\nas §3", "units": {"OD450 nm": "OD450 nm"}, "values": [{"binder": "B8", "OD450 nm": 1.27}, {"binder": "B9", "OD450 nm": 1.62}, {"binder": "B10", "OD450 nm": 1.34}]}, {"target": "T3, hBLyS-ECD (His-tagged extracellular domain of human BLyS protein, Ala134-Leu285) (human, UniProt Q9Y275 134-285)", "T3 construct": "Expressed in HEK293, purified on Ni column; also called immunogen", "test": "SPR (Biacore X100), antibody captured by anti-human Fc on CM5, hBLyS-ECD injected", "experimental": "Affinity constants were determined using a Biacore X100 instrument (purchased from GE Healthcare). Detailed operations and methods referred to the instrument manuals and detailed methods provided by manufacturers, specifically: determining affinity constant using a CM5 chip (Sensor Chip CM5, purchased from GE Healthcare). […] Then 1 M ethanolamine was injected in chip to block the remaining activation sites. After the antibody to be tested (i.e., the human BLyS antibody prepared by Embodiment 2) was captured by chip, 7 different gradient of immunogen dilutions (i.e., hBLyS-ECD) prepared by Embodiment 1 were injected and the binding and dissociation of antigen with antibody was detected by a Biacore instrument. The dissociation constant and binding constant were then fitted by Biacore X100 Evaluation Software 2.0, while the affinity constant was the ratio of dissociation constant to binding constant.", "units": {"Kd": "nM", "koff": "s⁻¹", "kon": "M⁻¹ s⁻¹"}, "values": [{"binder": "B1", "Kd": 2.42, "koff": 0.00136, "kon": 561000}, {"binder": "B2", "Kd": 0.637, "koff": 0.000946, "kon": "1.48e+06"}, {"binder": "B3", "Kd": 0.525, "koff": 0.000244, "kon": 465000}]}]}
